Tests used:
[1] = target: rHuman Notch-1/Fc Chimera, CF (R&D Systems Cat#3647-TK) (human) (UniProt P46531); assay: ECL (MSD multi-spot) screen, antigen spotted on plate, Fab at 0.34 uM; blank spot 356
[2] = target: rHuman P-Cadherin/Fc Chimera, CF (R&D Systems Cat#861-PC) (human) (UniProt P22223); assay: as above
[3] = target: rHuman IGF-1 sR, CF (R&D Systems Cat#391-GR) (human) (UniProt P08069); assay: as above
[4] = target: rHuman HGF R/c-MET/Fc Chimera, CF (R&D Systems Cat#358-MT/CF) (human) (UniProt P08581); assay: as above
[5] = target: rHuman ErbB2/Fc Chimera, CF (R&D Systems Cat#1129-ER) (human) (UniProt P04626); assay: as above
[6] = target: rHuman Erythropoietin R/Fc Chimera, CF (R&D Systems Cat#963-ER) (human) (UniProt P19235); assay: as above
[7] = target: rHuman Notch-1/Fc Chimera, CF (R&D Systems Cat#3647-TK) (human) (UniProt P46531); assay: ECL (MSD multi-spot), Fab […]; blank 162
[8] = target: rHuman P-Cadherin/Fc Chimera, CF (R&D Systems Cat#861-PC) (human) (UniProt P22223); assay: ECL (MSD multi-spot), Fab […]; blank 162
[9] = target: rHuman IGF-1 sR (IGF-1 sR), CF (R&D Systems Cat#391-GR) (human) (UniProt P08069); assay: ECL (MSD multi-spot), Fab […]; blank 162
[10] = target: rHuman CD44/Fc Chimera, CF (R&D Systems Cat#3660-CD) (human) (UniProt P16070); assay: ECL (MSD multi-spot), Fab […]; blank 162
[11] = target: rHuman HGF R/c-MET/Fc Chimera, CF (R&D Systems Cat#358-MT/CF) (human) (UniProt P08581); assay: ECL (MSD multi-spot), Fab […]; blank 162
[12] = target: rHuman EGF R/Fc Chimera, CF (R&D Systems Cat#344-ER) (human) (UniProt P00533); assay: ECL (MSD multi-spot), Fab […]; blank 162
[13] = target: rHuman ErbB2/Fc Chimera, CF (R&D Systems Cat#1129-ER) (human) (UniProt P04626); assay: ECL (MSD multi-spot), Fab […]; blank 162
[14] = target: rHuman Erythropoietin R/Fc Chimera, CF (R&D Systems Cat#963-ER) (human) (UniProt P19235); assay: ECL (MSD multi-spot), Fab […]; blank 162
[15] = target: rHuman Notch-1/Fc Chimera, CF (R&D Systems Cat#3647-TK) (human) (UniProt P46531); assay: ECL (MSD multi-spot), Fab 85.0 nM; blank 292
[16] = target: rHuman P-Cadherin/Fc Chimera, CF (R&D Systems Cat#861-PC) (human) (UniProt P22223); assay: ECL (MSD multi-spot), Fab 85.0 nM; blank 292
[17] = target: rHuman IGF-1 sR (IGF-1 sR), CF (R&D Systems Cat#391-GR) (human) (UniProt P08069); assay: ECL (MSD multi-spot), Fab 85.0 nM; blank 292
[18] = target: rHuman HGF R/c-MET/Fc Chimera, CF (R&D Systems Cat#358-MT/CF) (human) (UniProt P08581); assay: ECL (MSD multi-spot), Fab 85.0 nM; blank 292
[19] = target: rHuman EGF R/Fc Chimera, CF (R&D Systems Cat#344-ER) (human) (UniProt P00533); assay: ECL (MSD multi-spot), Fab 85.0 nM; blank 292
[20] = target: rHuman Erythropoietin R/Fc Chimera, CF (R&D Systems Cat#963-ER) (human) (UniProt P19235); assay: ECL (MSD multi-spot), Fab 85.0 nM; blank 292
[21] = target: rHuman Notch-1/Fc Chimera, CF (R&D Systems Cat#3647-TK) (human) (UniProt P46531); assay: ECL (MSD multi-spot), Fab 340 nM; blank 554
[22] = target: rHuman P-Cadherin/Fc Chimera, CF (R&D Systems Cat#861-PC) (human) (UniProt P22223); assay: ECL (MSD multi-spot), Fab 340 nM; blank 554
[23] = target: rHuman IGF-1 sR (IGF-1 sR), CF (R&D Systems Cat#391-GR) (human) (UniProt P08069); assay: ECL (MSD multi-spot), Fab 340 nM; blank 554
[24] = target: rHuman CD44/Fc Chimera, CF (R&D Systems Cat#3660-CD) (human) (UniProt P16070); assay: ECL (MSD multi-spot), Fab 340 nM; blank 554
[25] = target: rHuman HGF R/c-MET/Fc Chimera, CF (R&D Systems Cat#358-MT/CF) (human) (UniProt P08581); assay: ECL (MSD multi-spot), Fab 340 nM; blank 554
[26] = target: rHuman EGF R/Fc Chimera, CF (R&D Systems Cat#344-ER) (human) (UniProt P00533); assay: ECL (MSD multi-spot), Fab 340 nM; blank 554
[27] = target: rHuman ErbB2/Fc Chimera, CF (R&D Systems Cat#1129-ER) (human) (UniProt P04626); assay: ECL (MSD multi-spot), Fab 340 nM; blank 554
[28] = target: rHuman Erythropoietin R/Fc Chimera, CF (R&D Systems Cat#963-ER) (human) (UniProt P19235); assay: ECL (MSD multi-spot), Fab 340 nM; blank 554

rHuman Erythropoietin R/Fc Chimera, CF (R&D Systems Cat#963-ER) (human), sequence (P19235 25-250, change not shown): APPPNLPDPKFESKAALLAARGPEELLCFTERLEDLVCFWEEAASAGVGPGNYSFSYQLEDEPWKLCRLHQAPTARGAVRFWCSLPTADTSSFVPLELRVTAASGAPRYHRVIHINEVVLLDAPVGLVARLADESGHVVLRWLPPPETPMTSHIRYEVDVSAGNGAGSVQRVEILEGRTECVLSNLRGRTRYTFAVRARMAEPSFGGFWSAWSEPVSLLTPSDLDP

Fab VH4-34_IGHD7-27*01_IGHJ4*01 & V4-6_IGLJ4*01
ECL signal [1]: 912 | ECL signal [2]: 935 | ECL signal [3]: 871 | ECL signal [4]: 914 | ECL signal [5]: 900 | ECL signal [6]: 907 | ECL signal [7]: 649 ECL signal | ECL signal [8]: 421 ECL signal | ECL signal [9]: 646 ECL signal | ECL signal [10]: 522 ECL signal | ECL signal [11]: 607 ECL signal | ECL signal [12]: 528 ECL signal | ECL signal [13]: 866 ECL signal | ECL signal [14]: 494 ECL signal | ECL signal [15]: 780 ECL signal | ECL signal [16]: 709 ECL signal | ECL signal [17]: 891 ECL signal | ECL signal [18]: 998 ECL signal | ECL signal [19]: 1000 ECL signal | ECL signal [20]: 817 ECL signal | ECL signal [21]: 1210 ECL signal | ECL signal [22]: 1160 ECL signal | ECL signal [23]: 1040 ECL signal | ECL signal [24]: 959 ECL signal | ECL signal [25]: 1240 ECL signal | ECL signal [26]: 1210 ECL signal | ECL signal [27]: 1230 ECL signal | ECL signal [28]: 1260 ECL signal

From patent US20120058906A1
